Laboratory results as given in patent publication US20150037339A1.

B1: H4H10429P (antibody, human IgG4, V domains shown)
VH: QVQLVESGGGVVQPGRSLRLSCVASGFTVSSYGIHWVRQAPGKGLEWVSVIWYDGRNKDYADSVKGRFTISRDNSKNTVYLEMKGLRAEDTALYYCARDKTGDFDSWGQGTLVTVSS
VL: DIQMTQSPSSLSASVGDRVTITCRASQNINSFLSWYQQKPGKAPKFLIYDASSIQSGAPSRFSGSGSGTDFTLTISSLQPEDFATYYCQQSYSSPFTFGQGTKLEIK
B2: Activin B, P09529 293-407 (ligand)
chain: GLECDGRTNLCCRQQFFIDFRLIGWNDWIIAPTSYYGNYCEGSCPAYLAGVPGSASSFHTAVVNQYRMRGLNPGTVNSCCIPTKLSTMSMLYFDDEYNIVKRDVPNMIVEECGCA
B3: Activin A, P08476 311-426 (ligand)
chain: GLECDGKVNICCKKQFFVSFKDIGWNDWIIAPSGYHANYCEGECPSHIAGTSGSSLSFHSTVINHYRMRGHSPFANLKSCCVPTKLRPMSMLYYDDGQNIIKKDIQNMIVEECGCS
B4: Activin AB, P08476 311-426; P09529 293-407 (ligand)
chain 1: GLECDGKVNICCKKQFFVSFKDIGWNDWIIAPSGYHANYCEGECPSHIAGTSGSSLSFHSTVINHYRMRGHSPFANLKSCCVPTKLRPMSMLYYDDGQNIIKKDIQNMIVEECGCS
chain 2: GLECDGRTNLCCRQQFFIDFRLIGWNDWIIAPTSYYGNYCEGSCPAYLAGVPGSASSFHTAVVNQYRMRGLNPGTVNSCCIPTKLSTMSMLYFDDEYNIVKRDVPNMIVEECGCA
B5: Activin AC, P55103 237-352 (ligand, human)
chain 1: GLECDGKVNICCKKQFFVSFKDIGWNDWIIAPSGYHANYCEGECPSHIAGTSGSSLSFHSTVINHYRMRGHSPFANLKSCCVPTKLRPMSMLYYDDGQNIIKKDIQNMIVEECGCS
chain 2: GIDCQGGSRMCCRQEFFVDFREIGWHDWIIQPEGYAMNFCIGQCPLHIAGMPGIAASFHTAVLNLLKANTAAGTTGGGSCCVPTARRPLSLLYYDRDSNIVKTDIPDMVVEACGCS
B6: BMP4 (ligand, human, UniProt P12644 293-408, looked up)
chain: SPKHHSQRARKKNKNCRRHSLYVDFSDVGWNDWIVAPPGYQAFYCHGDCPFPLADHLNSTNHAIVQTLVNSVNSSIPKACCVPTELSAISMLYLDEYDKVVLKNYQEMVVEGCGCR
B7: BMP9 (ligand, human, UniProt Q9UK05 320-429, looked up)
chain: SAGAGSHCQKTSLRVNFEDIGWDSWIIAPKEYEAYECKGGCFFPLADDVTPTKHAIVQTLVHLKFPTKVGKACCVPTKLSPISVLYKDDMGVPTLKYHYEGMSVAECGCR
B8: BMP2 (ligand, human, UniProt P12643 283-396, looked up)
chain: QAKHKQRKRLKSSCKRHPLYVDFSDVGWNDWIVAPPGYHAFYCHGECPFPLADHLNSTNHAIVQTLVNSVNSKIPKACCVPTELSAISMLYLDENEKVVLKNYQDMVVEGCGCR
B9: BMP10 (ligand, human, UniProt O95393 317-424, looked up)
chain: NAKGNYCKRTPLYIDFKEIGWDSWIIAPPGYEAYECRGVCNYPLAEHLTPTKHAIIQALVHLKNSQKASKACCVPTKLEPISILYLDKGVVTYKFKYEGMAVSECGCR

target: hBMP7 (human) (UniProt P18075); test: SPR (Biacore 4000), captured on anti-human Fc, 200 nM ligand injected, 37 C
Sequence (P18075 293-431 limits assumed): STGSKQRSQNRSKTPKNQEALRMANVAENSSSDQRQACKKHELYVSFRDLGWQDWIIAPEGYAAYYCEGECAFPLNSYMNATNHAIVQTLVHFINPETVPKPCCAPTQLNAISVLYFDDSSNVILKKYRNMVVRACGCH

B1 gave a binding response (resonance units) for 200 nM ligand of 9.2 RU.

target: activin Type II receptors; test: cell-based or functional assay

First: B2
Second: B3
The EC50, activation of A204/CAGAx12-Luc cells (Smad 2/3-luciferase reporter) of the first is 2.1-fold lower: 0.047 nM for the first, 0.099 nM for the second.

First: B4
Second: B5
The EC50, activation of A204/CAGAx12-Luc cells (Smad 2/3-luciferase reporter) of the first is 230-fold lower: 0.019 nM for the first, 4.4 nM for the second.

target: BMP receptor types I and II (on W-20-17/BRE-luc cells); test: cell-based or functional assay

Going from B6 to B7, the EC50 [M]; activation of W-20-17/BRE-luc luciferase reporter cells rises from 6.3e-11 M to 2.6e-10 M (4.1-fold).

First: B8
Second: B9
The EC50 [M]; activation of W-20-17/BRE-luc luciferase reporter cells of the first is 74-fold lower: 3.4e-11 M for the first, 2.5e-09 M for the second.
